Results reported in patent US7556938B1, “Nucleic acids encoding potassium channel interactors” (Millennium Pharmaceuticals, Inc., priority 1998, dated 2009).

T1: rKv4.3N (Rattus norvegicus, UniProt Q62897)
T1 construct: expressed in transfected cells; host or cells: yeast HF7c (bait), mated with Y187 (fish)
T1 sequence (Q62897 1-180): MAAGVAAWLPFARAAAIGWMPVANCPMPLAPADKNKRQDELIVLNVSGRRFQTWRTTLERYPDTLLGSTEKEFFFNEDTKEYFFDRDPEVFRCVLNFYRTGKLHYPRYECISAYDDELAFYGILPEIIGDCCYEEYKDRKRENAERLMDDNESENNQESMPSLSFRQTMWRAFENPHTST

T2: rKv4.2N (Rattus norvegicus, UniProt Q63881)
T2 construct: the N-terminal domains of Kv4.3, Kv4.2 were expressed as “baits” (Kv4.3N, Kv4.2N, respectively); expressed in transfected cells; host or cells: yeast HF7c (baits), mated with Y187 (fish)
T2 sequence (Q63881 1-184 limits assumed): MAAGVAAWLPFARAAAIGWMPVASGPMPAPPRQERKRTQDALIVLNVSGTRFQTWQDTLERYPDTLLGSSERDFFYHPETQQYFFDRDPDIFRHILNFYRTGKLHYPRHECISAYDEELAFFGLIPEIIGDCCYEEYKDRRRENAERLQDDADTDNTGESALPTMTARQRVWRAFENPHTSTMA

T3: rKv4.2 (Rattus norvegicus, UniProt Q63881)
T3 construct: expressed in transfected cells; host or cells: CHO cells, transient transfection with GFP co-transfected
T3 sequence (Q63881 1-630): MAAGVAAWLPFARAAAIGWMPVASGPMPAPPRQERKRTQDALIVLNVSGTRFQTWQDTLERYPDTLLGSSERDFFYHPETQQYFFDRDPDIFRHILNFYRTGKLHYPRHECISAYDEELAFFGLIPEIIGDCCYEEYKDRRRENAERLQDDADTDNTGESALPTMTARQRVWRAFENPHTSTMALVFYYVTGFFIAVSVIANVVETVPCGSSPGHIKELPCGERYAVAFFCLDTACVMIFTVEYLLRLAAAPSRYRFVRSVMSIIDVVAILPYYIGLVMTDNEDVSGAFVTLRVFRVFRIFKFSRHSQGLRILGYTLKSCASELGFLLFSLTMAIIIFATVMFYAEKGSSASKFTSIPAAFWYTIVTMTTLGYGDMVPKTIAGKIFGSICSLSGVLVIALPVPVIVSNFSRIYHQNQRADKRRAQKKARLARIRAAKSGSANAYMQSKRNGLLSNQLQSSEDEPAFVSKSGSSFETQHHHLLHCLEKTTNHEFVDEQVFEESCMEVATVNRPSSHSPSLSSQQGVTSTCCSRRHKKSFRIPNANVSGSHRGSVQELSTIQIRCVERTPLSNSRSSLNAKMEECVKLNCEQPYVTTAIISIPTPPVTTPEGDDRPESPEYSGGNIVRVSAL

B1: Rat 33b07: PCIP of 407 amino acid residues, homologous to SET and Nucleosome Assembly Proteins (protein)
chain: MNGVEGNNELPLANTSTSALVPEDLDLKQDQPLSEETDTVREMEAAGEAGAEGGASPDSEHCDPQLCLRVAENGCAAAAGEGLEDGLSSSKCGDAPLASVAANDSNKNGCQLAGPLSPAKPKTLEASGAVGLGSQMMPGPKKTKVMTTKGAISATTGKEGEAGAAMQEKKGVQKEKKAAGGGKDETRPRAPKINNCMDSLEAIDQELSNVNAQADRAFLQLERKFGRMRRLHMQRRSFIIQNIPGFWVTAFRNHPQLSPMISGQDEDMMRYMINLEVEELKHPRAGCKFKFIFQSNPYFRNEGLVKEYERRSSGRVVSLSTPIRWHRGQEPQAHIHRNREGNTIPSFFNWFSDHSLLEFDRIAEIIKGELWSNPLQYYLMGDGPRRGVRVPPRQPVESPRSFRFQSG
B2: Rat 7s: rat ortholog of the human vacuolar H(+)-ATPase catalytic subunit A (partial) (protein)
chain: ADSTSRWAEALREISGRLAEMPADSGYPAYLGARLASFYERAGRVKCLGNPEREGSVSIVGAVSPPGGDFSDPVTSATLGIVQVFWGLDKKLAQRKHFPSVNWLISYSKYMRALDEYYDKHFTEFVPLRTKAKEILQEEEDLAEIVQLVGKASLAETDKITLEVAKLIKDDFLQQNGYTPYDRFCPFYKTVGMLSNMISFYDMARRAVETTAQSDNKITWSIIREHMGEILYKLSSMKFKDPVKDGEAKIKADYAQLLEDMQNAFRSLED
B3: KChIP1 ΔN2-31: N-terminal truncation mutant of KChIP1, reduced to the C-terminal 185 amino acid core sequence (protein)
chain: MLCSSLKLLHYLGLIDLSDDKIEDDLEMTMVCHRPEGLEQLEAQTNFTKRELQVLYRGFKNECPSGVVNEETFKQIYAQFFPHGDASTYAHYLFNAFDTTQTGSVKFEDFVTALSILLRGTVHEKLRWTFNLYDINKDGYINKEEMMDIVKAIYDMMGKYTYPVLKEDTPRQHVDVFFQKMDKNKD
B4: KChIP2: Potassium channel interacting protein KChIP2 (9ql) (protein)
chain: MRGQGRKESLSESRDLDGSYDQLTGHPPGPSKKALKQRFLKLLPCCGPQALPSVSETLAAPASLRPHRPRPLDPDSVEDEFELSTVCHRPEGLEQLQEQTKFTRRELQVLYRGFKNECPSGIVNEENFKQIYSQFFPQGDSSNYATFLFNAFDTNHDGSVSFEDFVAGLSVILRGTIDDRLSWAFNLYDLNKDGCITKEEMLDIMKSIYDMMGKYTYPALREEAPREHVESFFQKMDRNKDGVVTIEEFIESCQQDENIMRSMQLFDNVI
B5: KChIP3: Potassium channel interacting protein KChIP3 (p19) (protein)
chain: MQRTKEAMKASDGSLLGDPGRIPLSKREGIKWQRPRFTRQALMRCCLIKWILSSAAPQGSDSSDSELELSTVRHQPEGLDQLQAQTKFTKKELQSLYRGFKNECPTGLVDEDTFKLIYSQFFPQGDATTYAHFLFNAFDADGNGAIHFEDFVVGLSILLRGTVHEKLKWAFNLYDINKDGYITKEEMLAIMKSIYDMMGRHTYPILREDAPLEHVERFFQKMDRNQDGVVTIDEFLETCQKDENIMSSMQLFENVI
B6: Rat 1p: partial rat PCIP of 267 amino acid residues, similar to human Restin (protein)
chain: LKGARPRVVNSTCSDFNHGSALHIAASNLCLGAAKCLLEHGANPALRNRKGQVPAEVVPDPMDMSLDKAEAALVAKELRTLLEEAVPLSCTLPKVTLPNYDNVPGNLMLSALGLRLGDRVLLDGQKTGTLRFCGTTEFASGQWVGVELDEPEGKNDGSVGGVRYFICPPKQGLFASVSKVSKAVDAPPSSVTSTPRTPRMDFSRVTGKGRREHKGKKKSPSSPSLGSLQQREGAKAEVGDQVLVAGQNRDCAFLWEDRLCSRLLVWH

What was measured:
rKv4.3N = target: T1, rKv4.3N; test: Yeast two-hybrid binding and specificity test, Kv4.3 N-terminal bait; settings: for preference between rKv4.3N and rKv4.2N in yeast two-hybrid assay: rKv4.3N versus rKv4.2N
Method: The first 180 amino acids of rKv4.3 (described in Serdio P. et al. (1996) J. Neurophys 75:2174-2179) were amplified by PCR and cloned in frame into pGBT9 resulting in plasmid pFWA2, (hereinafter “bait”). This bait was transformed into the two-hybrid screening strain HF7c and tested for expression and self-activation. The bait was validated for expression by Western blotting.
(§1) Two-hybrid screens were carried out essentially as described in Bartel, P. et al. (1993) “Using the Two-Hybrid System to Detect Polypeptide-Polypeptide Interactions” in Cellular Interactions in Development: A Practical Approach, Hartley, D. A. ed. Oxford University Press, Oxford, pp. 153-179, with a bait-library pair of rkv4.3 bait-rat mid brain library. A filter disk beta-galactosidase (beta-gal) assay was performed essentially as previously described (Brill et al. (1994) Mol. Biol. Cell. 5:297-312). Clones that were positive for both reporter gene activity (His and beta-galactosidase) were scored and fish, plasmids were isolated from yeast, transformed into E. coli strain KC8, DNA plasmids were purified and the resulting plasmids were sequenced by conventional methods (Sanger F. et al. (1977) PNAS, 74: 5463-67).
(§2) Positive interactor clones were subjected to a binding specificity test where they were exposed to a panel of related and unrelated baits by a mating scheme previously described (Finley R. L. Jr. et al. (1994) PNAS, 91(26):12980-12984). Briefly, positive fish plasmids were transformed into Y187 and the panel of baits were transformed into HF7c. Transformed fish and bait cells were streaked out as stripes on selective medium plates, mated on YPAD plates, and tested for reporter gene activity.

rKv4.2N = target: T2, rKv4.2N; test: Yeast two-hybrid binding and specificity test, Kv4.2 N-terminal bait
Method: as §1, §2

rKv1.1N = target: T4, rKv1.1N (Rattus norvegicus, UniProt P10499); test: Yeast two-hybrid binding and specificity test, Kv1.1 N-terminal bait
T4 construct: expressed in transfected cells; host or cells: yeast HF7c (baits), mated with Y187 (fish)
Method: as §1, §2

rKv4.2 = target: T3, rKv4.2; test: Patch-clamp of Kv4.2 currents in CHO cells coexpressing KChIPs; assay type: cell-based; settings: for effects on Kv4.2 current density and kinetics: coexpressed with Kv4.2
Method: HEK 293 and CHO cells were used for recordings 1-3 days after a transient transfection. Whole-cell currents were recorded from cells expressing GFP, identified by their green fluorescence. […] After Gigaseal and ruptured whole-cell configuration access, resistance was less than 10 MOhms. Whole-cell bath solutions were made from a 10× Hank's balanced salt solution (GibcoBRL) with the following final concentration (in mM): 138 NaCl, 5.4 KCl, 1.3 MgCl2, 1.3 CaCl2, 5.5 D-Glukos and 10 HEPES, pH 7.4. The intracellular electrode solution consisted of (in mM) 140 KCl, 10 HEPES, 10 EGTA, 0.5 MgCl2, pH 7.3. All chemicals were from Sigma (St. Louis, Mo.) or Fisher Scientific (Houston, Tex.). Membrane currents were recorded using a EPC9 patch-clamp amplifier (HEKA, Germany). Data were analyzed using Matlab (Natick, Ma), and leak subtracted if necessary. All experiments were done at room temperature.
Because PCIPs, e.g., KChIP1 (1v), KChIP2 (9ql), and KChIP3 (p19), colocalize and coassociate with Kv4 α-subunits in brain, another critical question was to determine whether these PCIPs alter the conductance properties of Kv4 channels. To address this issue, Kv4.2 and Kv4.3 were expressed alone and in combination with individual PCIPs. CHO cells were transiently-transfected with cDNA using the DOTAP lipofection method as described by the manufacturer (Boehringer Mannheim, Inc.). Transfected cells were identified by cotransfecting enhanced GFP along with the genes of interest and subsequently determining if the cells contained green GFP fluorescence. Currents in CHO cells were measured using the patch-clamp technique (Hamill et al. 1981. Pfluegers Arch. 391: 85-100).
First, the amplitude of the Kv4.2 current increased approximately 7.5 fold in the presence of KChIP1 (amplitude of Kv4.2 alone=0.60+/−0.096 nA/cell; Kv4.2+KChIP1=4.5+/−0.55 nA/cell). […] Finally, the kinetics of Kv4.2 inactivation slowed considerably when Kv4.2 was coexpressed with KChIP1 (inactivation time constant of Kv4.2 alone=28.2+/−2.6 ms; Kv4.2+KChIP1=104.1+/−10.4 ms), while channels recovered from inactivation much more rapidly in cells expressing both Kv4.2 and KChIP1 (recovery tau=53.6+/−7.6 ms) versus cells expressing Kv4.2 alone (recovery tau=272.2+/−26.1 ms).

T4 sequence (P10499 1-164 limits assumed): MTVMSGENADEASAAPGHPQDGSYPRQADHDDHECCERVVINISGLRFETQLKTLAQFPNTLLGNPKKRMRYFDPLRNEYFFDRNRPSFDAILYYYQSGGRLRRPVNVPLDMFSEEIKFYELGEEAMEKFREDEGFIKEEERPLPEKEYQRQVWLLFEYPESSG

| Molecule | binding to rKv4.3N in yeast two-hybrid assay (rKv4.3N) | preference between rKv4.3N and rKv4.2N in yeast two-hybrid assay (rKv4.3N) | binding to rKv4.2N in yeast two-hybrid assay (rKv4.2N) | binding to rKv1.1N in yeast two-hybrid assay (rKv1.1N) | effects on Kv4.2 current density and kinetics (rKv4.2) | Inactivation time constant (ms, at 50 mV) (rKv4.2; rKv4.2 coexpressed with the KChIP, at 50 mV) |
| --- | --- | --- | --- | --- | --- | --- |
| B1 | binds | slight preference for rKv4.2N | binds | does not bind | – | – |
| B2 | binds | preference for rKv4.3N | binds | does not bind | – | – |
| B3 | – | – | – | – | indistinguishable from the effects produced by full-length KChIP1 or KChIP2 | 129.2 ± 14.2 ms |
| B4 | – | – | – | – | strikingly similar to those produced by KChIP1 | – |
| B5 | – | – | – | – | strikingly similar to those produced by KChIP1 | – |
| B6 | binds | slight preference for rKv4.3N | binds | does not bind | – | – |
